Experimental data from article PMC12207370, “Macrocyclic Peptide Probes for Immunomodulatory Protein CD59: Potent Modulators of Bacterial Toxin Activity and Antibody‐Dependent Cytotoxicity” (Angewandte Chemie (International Ed. in English), 2025).

Molecular target: T1, biotinylated CD59 (Homo sapiens, UniProt P13987)
T1 construct: Recombinant soluble human CD59 with an additional C-terminal cysteine residue
T1 sequence (P13987 26-102 limits assumed): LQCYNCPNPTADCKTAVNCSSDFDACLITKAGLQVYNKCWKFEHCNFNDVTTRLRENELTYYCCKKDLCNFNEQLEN
Experiment: mRNA-display cyclic peptide screen against CD59-biotin, NGS abundance after 6th selection round
Details: for Percentage Seq I: counts normalised by total counts of sample Seq I; for Percentage Seq I / Percentage Seq II: percentage of the pool; for Percentage Seq I / Percentage Seq II / Percentage Average / Percentage of the pool, averaged across the two sequencing samples / Percentage of the pool, Seq I / Percentage of the pool, Seq II: sheet R6; for Percentage Seq II: counts normalised by total counts of sample Seq II; for Percentage Average: percentage of the pool averaged across the two sequencing samples; for Counts Seq I / Counts Seq II: raw NGS counts of peptide sequence; for Counts Seq I: sequencing sample Seq I; for Counts Seq I / Counts Seq II / Counts (raw counts for peptide sequence), Seq I / Counts (raw counts for peptide sequence), Seq II: sheet R6 (6th selection round); for Counts Seq II: sequencing sample Seq II; for Counts (raw counts for peptide sequence), Seq I: NGS sample Seq I; for Counts (raw counts for peptide sequence), Seq II: NGS sample Seq II; for Percentage of the pool, averaged across the two sequencing samples: average of Seq I and Seq II; for Percentage of the pool, Seq I: counts normalised by total counts of NGS sample Seq I; for Percentage of the pool, Seq II: counts normalised by total counts of NGS sample Seq II
Outline: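 Peptide–mRNA fusions were made by in vitro translation with a customised PURE express kit. The kit lacked release factor 1 and methionine and was supplemented with […] initiator tRNA carrying N-chloroacetyl-d-tyrosine. Thioether macrocycles were formed, then enriched and amplified over iterative rounds on CD59-biotin immobilised on streptavidin beads. NGS read counts per sequence were recorded after the 6th selection round.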

| Sequence | Percentage Seq I [%] | Percentage Seq II [%] | Percentage Average [%] | Counts Seq I | Counts Seq II | Counts (raw counts for peptide sequence), Seq I | Counts (raw counts for peptide sequence), Seq II | Percentage of the pool, averaged across the two sequencing samples [%] | Percentage of the pool, Seq I [%] | Percentage of the pool, Seq II [%] |
| --- | --- | --- | --- | --- | --- | --- | --- | --- | --- | --- |
| SRGGKDWSRG | 0.235 | 0.251 | 0.243 | 1026 | 108 | – | – | – | – | – |
| SRNGIQFTCS | 0.036 | 0.037 | 0.037 | 158 | 16 | – | – | – | – | – |
| SSALERIGKCP | 0.227 | 0.211 | 0.219 | 991 | 91 | – | – | – | – | – |
| SSFREYNHLPCT | 0.598 | 0.694 | 0.646 | 2617 | 299 | – | – | – | – | – |
| SSWAQLPCKR | 0.039 | 0.030 | 0.035 | 170 | 13 | – | – | – | – | – |
| SSWAQLPCRR | 0.066 | 0.070 | 0.068 | 289 | 30 | – | – | – | – | – |
| SSWAQLPCRS | 0.041 | 0.051 | 0.046 | 180 | 22 | – | – | – | – | – |
| SSWAQVPCYS | 0.040 | 0.032 | 0.036 | 175 | 14 | – | – | – | – | – |
| SSYRELAHLPC | 0.031 | 0.046 | 0.039 | 135 | 20 | – | – | – | – | – |
| SSYRELAHLSC | 0.127 | 0.125 | 0.126 | 555 | 54 | – | – | – | – | – |
| STKNDYNNVPC | 0.012 | 0.026 | 0.019 | 54 | 11 | – | – | – | – | – |
| STRRDRLGLIC | 1.051 | 1.033 | 1.042 | 4600 | 445 | – | – | – | – | – |
| STRRDRLGLTC | – | – | – | – | – | 57 | 9 | 0.017 | 0.013 | 0.021 |
| STWGNRNETRG | 0.029 | 0.026 | 0.028 | 129 | 11 | – | – | – | – | – |
| STYNDFFRVPC | 0.149 | 0.200 | 0.174 | 650 | 86 | – | – | – | – | – |
| SVGGSRSWTRG | 0.129 | 0.146 | 0.138 | 566 | 63 | – | – | – | – | – |
| SVRGDLYSVLG | – | – | – | – | – | 74 | 7 | 0.017 | 0.017 | 0.016 |
| SVTGNRDHTRG | 0.021 | 0.026 | 0.023 | 92 | 11 | – | – | – | – | – |
| SWQNECFRLRT | 0.013 | 0.026 | 0.019 | 58 | 11 | – | – | – | – | – |
| SWTRGNRSSVRG | – | – | – | – | – | 44 | 5 | 0.011 | 0.010 | 0.012 |
| SWTWGDRSSVRG | 0.016 | 0.023 | 0.020 | 71 | 10 | – | – | – | – | – |
| SWTWGNGSSVRG | 0.187 | 0.186 | 0.186 | 817 | 80 | – | – | – | – | – |
| SWTWGNRNSVRG | 0.043 | 0.065 | 0.054 | 190 | 28 | – | – | – | – | – |
